Laboratory results from US20210338852A1 (NIHON MEDI PHYSICS, published 2021).

B1: ^225Ac-labeled anti-MUC5AC humanized antibody prepared using ^225Ac-labeled DOTAGA-DBCO (monovalent antibody; H01L03) (antibody, human IgG1, kappa, V domains shown)
VH: EVQLLESGGGLVQPGGSLRLSCAASGFTFSNYGMSWVRQAPGKGLEWVSTISNSGRYTYFPDSVKGRFTISRDNSKNTLYLQMNSLRAEDTALYYCTRHLDYANYDAMDYWGQGTLVTVSS
VL: DIQMTQSPSSLSASVGDRVTITCRASKSVTTSDFSYMHWYQQKPGKSPKLLIYLASNLESGVPSRFSGSGSGTDFSLTISSLQPEDFATYYCQHSREFPWTFGGGTKVEIKR
modifications: Fc region site-specifically modified (Lys252, Eu numbering) by one molecule per antibody of antibody-modification peptide (SEQ ID NO: 10 with Xaa2 = lysine, disulfide between its two cysteines, N-terminal diglycolic acid-PEG8-ethyl azide); azide click-reacted with ^225Ac-chelated DOTAGA-DBCO
notes: also called RI-labeled anti-MUC5AC humanized antibody prepared using ^225Ac-labeled DOTAGA-DBCO; ^225Ac-labeled antibody
B2: ^89Zr-labeled anti-MUC5AC humanized antibody prepared using ^89Zr-labeled DOTAGA-DBCO (monovalent antibody; H01L03) (antibody, human IgG1, kappa, V domains shown)
VH: EVQLLESGGGLVQPGGSLRLSCAASGFTFSNYGMSWVRQAPGKGLEWVSTISNSGRYTYFPDSVKGRFTISRDNSKNTLYLQMNSLRAEDTALYYCTRHLDYANYDAMDYWGQGTLVTVSS
VL: DIQMTQSPSSLSASVGDRVTITCRASKSVTTSDFSYMHWYQQKPGKSPKLLIYLASNLESGVPSRFSGSGSGTDFSLTISSLQPEDFATYYCQHSREFPWTFGGGTKVEIKR
modifications: Fc region site-specifically modified (Lys252, Eu numbering) by one molecule per antibody of antibody-modification peptide (SEQ ID NO: 10 with Xaa2 = lysine, disulfide between its two cysteines, N-terminal diglycolic acid-PEG8-ethyl azide); azide click-reacted with ^89Zr-chelated DOTAGA-DBCO
notes: also called RI-labeled anti-MUC5AC humanized antibody prepared using ^89Zr-labeled DOTAGA-DBCO; ^89Zr complex-labeled antibody
B3: ^89Zr-labeled anti-MUC5AC humanized antibody prepared using ^89Zr-labeled DOTA-Bn-DBCO (monovalent antibody; H01L03) (antibody, human IgG1, kappa, V domains shown)
VH: EVQLLESGGGLVQPGGSLRLSCAASGFTFSNYGMSWVRQAPGKGLEWVSTISNSGRYTYFPDSVKGRFTISRDNSKNTLYLQMNSLRAEDTALYYCTRHLDYANYDAMDYWGQGTLVTVSS
VL: DIQMTQSPSSLSASVGDRVTITCRASKSVTTSDFSYMHWYQQKPGKSPKLLIYLASNLESGVPSRFSGSGSGTDFSLTISSLQPEDFATYYCQHSREFPWTFGGGTKVEIKR
modifications: Fc region site-specifically modified (Lys252, Eu numbering) by one molecule per antibody of antibody-modification peptide (SEQ ID NO: 10 with Xaa2 = lysine, disulfide between its two cysteines, N-terminal diglycolic acid-PEG8-ethyl azide); azide click-reacted with ^89Zr-chelated DOTA-Bn-DBCO (formula L1-4)
notes: also called RI-labeled anti-MUC5AC humanized antibody prepared using ^89Zr-labeled DOTA-Bn-DBCO

Columns and labels:
[1] = target: T1, mucin subtype 5AC (MUC5AC) (human (from transplanted human …, UniProt P98088 28-5654, limits assumed)); assay: in vitro autoradiography; mean of small ROIs in MUC5AC positive vs negative tumor sections
T1 construct: Secretory mucin glycoprotein; target present in tumor tissue sections, not as purified protein

[2] = target: T1, mucin subtype 5AC (MUC5AC); assay: in vitro autoradiography; whole-section ROI of MUC5AC positive vs negative tumor sections

Row | Binder | binding ratio to the MUC5AC positive tumor and the negative tumor [1] [fold] | binding ratio to the MUC5AC positive tumor and the negative tumor [2] [fold]
1 | B1 | 6.5 | –
2 | B2 | – | 138
3 | B3 | – | 151
